Data from IntAct's records for PubMed 31515488.

B1: Coiled-coil domain-containing protein 33 (Homo sapiens), Q8N5R6-5 (parent)
chain: MGEPGPPSPPAPKAAPGLIDSFSEMNNYRRAMQKMAEDILSLRRQASILEGENRILRSRLAQQEEEEGQGKASEAQNTVSMKQKLLLSELDMKKLRDRVQHLQNELIRKNDREKELLLLYQAQQPQAALLKQYQGKLQKMKALEETVRHQEKVIEKMERVLEDRLQDRSKPPPLNRQQGKPYTGFPMLSASGLPLGSMGENLPVELYSVLLAENAKLRTELDKNRHQQAPIILQQQALPVDPGELGAGGDLTERLQETHGPGHSECTETLPAQDLLSGTSDKFNLLAKLEHAQSRILSLESQLEDSARRWGREKQDLATRLQEQEKGFRHPSNSIIIEQPVSDPPGVAPRGSGGGAGSHRTPKVTGP
partner: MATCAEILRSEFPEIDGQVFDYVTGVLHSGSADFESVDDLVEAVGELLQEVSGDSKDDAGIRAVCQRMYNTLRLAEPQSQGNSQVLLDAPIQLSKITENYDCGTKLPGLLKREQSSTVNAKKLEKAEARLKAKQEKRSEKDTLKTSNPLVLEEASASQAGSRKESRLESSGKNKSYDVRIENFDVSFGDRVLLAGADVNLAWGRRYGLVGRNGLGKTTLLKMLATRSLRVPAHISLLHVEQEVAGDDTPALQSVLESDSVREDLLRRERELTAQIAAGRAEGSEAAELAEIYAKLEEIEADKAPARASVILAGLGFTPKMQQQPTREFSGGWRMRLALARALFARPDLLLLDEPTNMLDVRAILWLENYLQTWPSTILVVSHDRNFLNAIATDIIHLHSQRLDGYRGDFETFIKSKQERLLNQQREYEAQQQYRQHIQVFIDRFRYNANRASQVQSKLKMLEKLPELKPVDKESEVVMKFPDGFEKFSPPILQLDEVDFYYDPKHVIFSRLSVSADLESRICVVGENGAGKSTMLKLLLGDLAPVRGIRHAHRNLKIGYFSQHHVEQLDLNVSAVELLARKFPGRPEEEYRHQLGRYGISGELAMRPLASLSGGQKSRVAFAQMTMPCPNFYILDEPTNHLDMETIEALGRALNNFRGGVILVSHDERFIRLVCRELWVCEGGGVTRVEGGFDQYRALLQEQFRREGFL
B2: Keratin-associated protein 26-1 (Homo sapiens), Q6PEX3 (parent)
chain: MSCPNYCSGNSNSGSLRTSRHIPLTSIDLCPTSVSCGDVLYLPTSSQDHTWVTDNCQETCGEPTSCQPVHCETGNLETSCGSSTAYYVPRPCQGSSFLPASFFSSSCLPVSCRPQRYVSSGCRPLRPLLNSYQPIGDCVPNAYRPQFCLSKSCQPQNLLTSGCQPSSCLAYRPQSLHVVSSSLRPLGPLFSGCQPLTHVFSTCRPSCSGL
partner: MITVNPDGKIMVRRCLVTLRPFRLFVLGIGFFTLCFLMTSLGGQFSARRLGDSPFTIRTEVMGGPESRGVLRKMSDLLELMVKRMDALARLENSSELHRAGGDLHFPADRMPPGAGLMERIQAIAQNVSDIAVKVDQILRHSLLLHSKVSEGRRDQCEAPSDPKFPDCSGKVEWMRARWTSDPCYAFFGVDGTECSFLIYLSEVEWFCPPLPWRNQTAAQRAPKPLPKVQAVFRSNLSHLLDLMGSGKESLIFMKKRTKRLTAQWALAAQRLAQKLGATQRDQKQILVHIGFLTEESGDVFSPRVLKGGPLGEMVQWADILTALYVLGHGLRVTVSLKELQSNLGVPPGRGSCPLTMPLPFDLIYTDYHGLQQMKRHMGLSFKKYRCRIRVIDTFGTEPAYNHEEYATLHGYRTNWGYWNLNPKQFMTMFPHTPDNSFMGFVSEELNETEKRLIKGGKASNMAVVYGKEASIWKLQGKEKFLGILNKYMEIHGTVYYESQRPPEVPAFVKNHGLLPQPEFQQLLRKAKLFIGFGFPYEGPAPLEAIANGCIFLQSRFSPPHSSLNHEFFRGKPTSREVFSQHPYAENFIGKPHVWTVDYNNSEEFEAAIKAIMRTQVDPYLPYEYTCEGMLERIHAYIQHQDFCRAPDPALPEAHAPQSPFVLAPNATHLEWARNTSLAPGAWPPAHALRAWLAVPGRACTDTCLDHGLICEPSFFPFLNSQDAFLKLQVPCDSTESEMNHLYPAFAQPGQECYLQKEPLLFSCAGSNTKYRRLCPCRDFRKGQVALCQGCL
B3: 26S proteasome non-ATPase regulatory subunit 9 (Homo sapiens), O00233 (parent)
chain: MSDEEARQSGGSSQAGVVTVSDVQELMRRKEEIEAQIKANYDVLESQKGIGMNEPLVDCEGYPRSDVDLYQVRTARHNIICLQNDHKAVMKQVEEALHQLHARDKEKQARDMAEAHKEAMSRKLGQSESQGPPRAFAKVNSISPGSPASIAGLQVDDEIVEFGSVNTQNFQSLHNIGSVVQHSEGKPLNVTVIRRGEKHQLRLVPTRWAGKGLLGCNIIPLQR

Variants of: B1
Conditions: with abcf3_human ABCF3, Q9NUQ8

Variant	effect of a mutation on the interaction
M25V	with no effect
P203L	with no effect

Variants of: B2
Conditions: with mgt5b_human MGAT5B

Variant	effect of a mutation on the interaction
S26Y	with no effect

Variants of: B3
Conditions: with prs6a_human PSMC3, P17980
Sequence of prs6a_human PSMC3, P17980 (P17980 whole entry): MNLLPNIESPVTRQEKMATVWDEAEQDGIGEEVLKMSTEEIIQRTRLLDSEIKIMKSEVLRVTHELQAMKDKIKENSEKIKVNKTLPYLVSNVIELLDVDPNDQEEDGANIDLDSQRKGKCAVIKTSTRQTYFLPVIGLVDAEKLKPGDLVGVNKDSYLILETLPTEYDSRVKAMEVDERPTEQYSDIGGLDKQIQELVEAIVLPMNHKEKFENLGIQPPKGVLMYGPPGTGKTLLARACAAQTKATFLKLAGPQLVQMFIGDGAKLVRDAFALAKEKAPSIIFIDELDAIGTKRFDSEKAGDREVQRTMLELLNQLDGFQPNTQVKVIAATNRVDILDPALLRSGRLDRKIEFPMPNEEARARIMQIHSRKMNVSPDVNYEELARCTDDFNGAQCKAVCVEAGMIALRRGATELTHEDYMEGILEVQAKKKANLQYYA

Variant	effect of a mutation on the interaction
R110W	with no effect
R134W	with no effect
E197G	with no effect

Variants of: B3
Conditions: with prs10_human PSMC6, P62333
Sequence of prs10_human PSMC6, P62333 (P62333 whole entry): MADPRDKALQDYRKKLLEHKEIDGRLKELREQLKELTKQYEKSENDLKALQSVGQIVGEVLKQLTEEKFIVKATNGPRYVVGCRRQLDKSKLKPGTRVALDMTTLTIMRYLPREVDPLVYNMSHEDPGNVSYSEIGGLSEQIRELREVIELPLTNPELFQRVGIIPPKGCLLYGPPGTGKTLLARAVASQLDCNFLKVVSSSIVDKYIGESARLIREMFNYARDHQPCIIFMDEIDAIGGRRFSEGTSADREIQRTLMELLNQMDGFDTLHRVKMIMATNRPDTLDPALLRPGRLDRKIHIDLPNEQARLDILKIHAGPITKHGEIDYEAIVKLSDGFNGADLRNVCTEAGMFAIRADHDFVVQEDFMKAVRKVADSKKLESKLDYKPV

Variant	effect of a mutation on the interaction
R110W	with no effect
R134W	with no effect

Variants of: B3
Conditions: with cc136_human CCDC136, Q96JN2
Sequence of cc136_human CCDC136, Q96JN2 (Q96JN2 whole entry): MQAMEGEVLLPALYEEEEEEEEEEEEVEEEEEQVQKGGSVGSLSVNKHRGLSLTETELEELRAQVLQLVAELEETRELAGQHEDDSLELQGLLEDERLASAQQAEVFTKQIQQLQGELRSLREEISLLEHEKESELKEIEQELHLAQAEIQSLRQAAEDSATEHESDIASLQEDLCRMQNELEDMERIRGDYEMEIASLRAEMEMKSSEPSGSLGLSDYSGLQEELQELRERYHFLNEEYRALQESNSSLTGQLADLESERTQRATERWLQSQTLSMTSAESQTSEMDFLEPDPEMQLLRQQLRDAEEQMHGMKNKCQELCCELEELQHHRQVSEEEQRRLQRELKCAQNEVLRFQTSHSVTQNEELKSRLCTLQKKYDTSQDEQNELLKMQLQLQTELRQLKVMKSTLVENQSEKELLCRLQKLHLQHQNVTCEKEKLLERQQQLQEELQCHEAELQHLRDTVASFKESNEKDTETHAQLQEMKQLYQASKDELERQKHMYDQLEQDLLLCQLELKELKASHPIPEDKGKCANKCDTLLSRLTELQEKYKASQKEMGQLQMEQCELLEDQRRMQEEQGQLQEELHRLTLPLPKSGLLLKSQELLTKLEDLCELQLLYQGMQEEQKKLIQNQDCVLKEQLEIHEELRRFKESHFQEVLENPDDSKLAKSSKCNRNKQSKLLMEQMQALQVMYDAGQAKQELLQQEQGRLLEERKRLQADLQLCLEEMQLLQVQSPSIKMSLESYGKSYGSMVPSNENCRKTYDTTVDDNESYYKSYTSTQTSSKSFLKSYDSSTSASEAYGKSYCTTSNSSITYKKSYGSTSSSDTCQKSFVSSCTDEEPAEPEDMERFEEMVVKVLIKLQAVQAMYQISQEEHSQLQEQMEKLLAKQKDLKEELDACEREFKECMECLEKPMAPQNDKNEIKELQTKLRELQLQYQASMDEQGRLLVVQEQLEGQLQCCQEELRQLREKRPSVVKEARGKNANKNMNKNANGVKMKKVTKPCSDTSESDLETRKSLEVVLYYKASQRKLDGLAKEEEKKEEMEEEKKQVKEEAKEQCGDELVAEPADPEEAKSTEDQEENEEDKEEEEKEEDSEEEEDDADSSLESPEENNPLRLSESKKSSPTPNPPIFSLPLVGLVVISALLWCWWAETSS

Variant	effect of a mutation on the interaction
R110W	with no effect

Variants of: B3
Conditions: with spn90_human NCKIPSD

Variant	effect of a mutation on the interaction
R110W	with no effect
R134W	with no effect
E197G	with no effect
